In the supplement of paper PMC7877785:
± gives the uncertainty stated by the source.

Experiment: self-splicing fitness, log relative to wild type (ln ratio); higher = more splicing; Tetrahymena group I intron in knt gene, E. coli kanamycin selection, DiMSum; sequences stand for … in CUCUCU…GGAGGGAAAAGUUAUCAGGCAUGCACCUGGUAGCUAGUCUUUAAACCAAUAGAUUGCAUCGGUUUAAAAGGCAAGACCGUCAAAUUGCGGGAAAGGGGUCAACAGCCGUUCAGUACCAAGUCUCAGGGGAAACUUUGAGAUGGCCUUGCAAAGGGUAUGGUAAUAAGCUGACGGACAUGGUCCUAACCACGCAGCCAAGUCCUAAGUCAACAGAUCUUCUGUUGAUAUGGAUGCAGUUCACAGACUAAAUGUCGGUCGGGGAAGAUGUAUUCUUCUCAUAAGAUAUAGUCGGACCUCUCCUUAAUGGGAGCUAGCGGAUGAAGUGAUGCAACACUGGAGCCGCUGGGAACUAAUUUGUAUGCGAAAGUAUAUUGAUUAGUUUUGGAGUACUCGUGGUCG
Procedure, shortened: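 Pooled colonies went to amplicon sequencing on an Illumina HiSeq 2500 after six replicate transformations. The plates were LB agar with 100 μg/mL carbenicillin, 50 μM IPTG and 0.2% rhamnose, with or without 25 μg/mL kanamycin, incubated overnight at 37°C or 30°C. The E. coli BL21(DE3) library had all eight P1ex-region intron nucleotides randomised, the intron placed in the knt kanamycin-resistance gene on pET-22b(+). DiMSum fitness is the error-weighted combination of replicate fold changes, kanamycin against none, normalised to wild type.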

| Sequence | self-splicing fitness (ln) (30 °C) | self-splicing fitness (ln) (37 °C) |
| --- | --- | --- |
| CCUUAGCAAUAUUACGACCU | -2.79 ± 0.2 | -1.77 ± 0.29 |
| ACAAAGCAAUAUUACGUAGA | -3.68 ± 0.16 | -1.66 ± 0.15 |
| UGUCAGCAAUAUUACGUACC | -0.242 ± 0.11 | -0.159 ± 0.13 |
| CAAGAGCAAUAUUACGUUUC | -3.38 ± 0.24 | -2.01 ± 0.26 |
| ACGGAGCAAUAUUACGGUUA | -2.6 ± 0.23 | -2.2 ± 0.15 |
| CUCGAGCAAUAUUACGGGUA | -4.2 ± 0.39 | -1.81 ± 0.16 |
| UCUGAGCAAUAUUACGGAAC | -4.04 ± 0.39 | -3.05 ± 0.28 |
| CGCUAGCAAUAUUACGCAAC |  | -1.61 ± 0.49 |
| GUAAAGCAAUAUUACGUGCU | -2.34 ± 0.11 | -0.431 ± 0.12 |
| CAAAAGCAAUAUUACGCGUC | -3.72 ± 0.24 | -1.86 ± 0.18 |
| AUACAGCAAUAUUACGGUGG | -2.95 ± 0.11 | -2.92 ± 0.15 |
| AGAUAGCAAUAUUACGAUUA | -0.68 ± 0.15 | -0.852 ± 0.14 |
| UAAAAGCAAUAUUACGCAAC | -4.54 ± 0.34 | -2.13 ± 0.21 |
| GAAAAGCAAUAUUACGAAGU | -2.98 ± 0.18 | -0.976 ± 0.2 |
| CUAGAGCAAUAUUACGUCUU | -3.52 ± 0.18 | -2.27 ± 0.22 |
| AGAAAGCAAUAUUACGACAU | 0.0508 ± 0.012 | 0.0923 ± 0.032 |
| GUAUAGCAAUAUUACGCGGA | -3.08 ± 0.33 | -0.662 ± 0.2 |
| ACGAAGCAAUAUUACGUAGA | -3.72 ± 0.24 | -2.89 ± 0.27 |
| AUUUAGCAAUAUUACGCUUU | -2.7 ± 0.16 | -1.2 ± 0.11 |
| CAAGAGCAAUAUUACGACUG | -1.57 ± 0.12 | -1.19 ± 0.19 |
| AUCGAGCAAUAUUACGUAGC | -4.41 ± 0.42 | -1.79 ± 0.26 |
| ACCCAGCAAUAUUACGGUCA | -1.55 ± 0.067 | -0.429 ± 0.069 |
| CAACAGCAAUAUUACGGCCC |  | -2.06 ± 0.33 |
| UAAGAGCAAUAUUACGCAGU |  | -2.38 ± 0.28 |
| UUACAGCAAUAUUACGAUCA | -0.398 ± 0.13 | -0.133 ± 0.17 |

| Sequence | self-splicing fitness (ln) (30 °C) | self-splicing fitness (ln) (37 °C) |
| --- | --- | --- |
| CCUGAGCAAUAUUACGACAC | -2.49 ± 0.49 | -2.19 ± 0.28 |
| GAUAAGCAAUAUUACGGUCU | -2.33 ± 0.12 | -1.46 ± 0.14 |
| CAGAAGCAAUAUUACGUAUA | -3.84 ± 0.21 | -1.84 ± 0.14 |
| GGCUAGCAAUAUUACGUUUU | -0.476 ± 0.084 | -0.0101 ± 0.093 |
| GAUCAGCAAUAUUACGCUAU | -0.967 ± 0.24 | -0.471 ± 0.15 |
| CCAAAGCAAUAUUACGGUGA | -3.77 ± 0.25 | -4.04 ± 0.34 |
| GCAAAGCAAUAUUACGUCCG | -1.98 ± 0.25 | -1.74 ± 0.31 |
| GCCAAGCAAUAUUACGGCGC | -1.36 ± 0.11 | -0.697 ± 0.15 |
| AUUCAGCAAUAUUACGCAGC | -1.82 ± 0.38 | -1.15 ± 0.26 |
| GUAGAGCAAUAUUACGCGAA | -1.12 ± 0.058 | -0.709 ± 0.077 |
| AACCAGCAAUAUUACGGCAG | -1.02 ± 0.058 | -0.17 ± 0.08 |
| UCCCAGCAAUAUUACGAUGG | -3.71 ± 0.13 | -2.31 ± 0.15 |
| GGCAAGCAAUAUUACGAUCG | -0.12 ± 0.054 | -0.459 ± 0.066 |
| GCCCAGCAAUAUUACGGCAA | -2.55 ± 0.19 | -0.273 ± 0.11 |
| UGCGAGCAAUAUUACGAGUG | -2.85 ± 0.17 | -2.32 ± 0.28 |
| AAUAAGCAAUAUUACGACCU | 0.104 ± 0.12 | 0.726 ± 0.16 |
| UUUCAGCAAUAUUACGUAUG | -0.689 ± 0.081 | -0.635 ± 0.11 |
| GUUCAGCAAUAUUACGAGCC | -3.38 ± 0.18 | -2.48 ± 0.24 |
| CGUUAGCAAUAUUACGUCGG | -0.297 ± 0.1 | 0.0154 ± 0.14 |
| GGCGAGCAAUAUUACGGAUG | -3.22 ± 0.19 | -1.7 ± 0.15 |
| GUGAAGCAAUAUUACGGCAG | -2.32 ± 0.13 | -1.06 ± 0.16 |
| GAUAAGCAAUAUUACGCCAA | -1.91 ± 0.2 | -2.16 ± 0.22 |
| CUGGAGCAAUAUUACGCAAG | -2.82 ± 0.21 | -2.08 ± 0.27 |
| CGAUAGCAAUAUUACGCAUG | -1.79 ± 0.07 | -0.761 ± 0.069 |
| UAACAGCAAUAUUACGGGAU | -3.08 ± 0.15 | -2.43 ± 0.16 |

| Sequence | self-splicing fitness (ln) (30 °C) | self-splicing fitness (ln) (37 °C) |
| --- | --- | --- |
| GGGAAGCAAUAUUACGCACU | -1.78 ± 0.21 | -1.94 ± 0.2 |
| UUUGAGCAAUAUUACGUCUA | -1.05 ± 0.2 | -1.06 ± 0.21 |
| ACAUAGCAAUAUUACGUGUU | -4.04 ± 0.17 | -2.87 ± 0.14 |
| GUCUAGCAAUAUUACGGCCC | -2.32 ± 0.39 | 0.974 ± 0.31 |
| ACGGAGCAAUAUUACGCUAC | -3.07 ± 0.33 | -2.06 ± 0.39 |
| AGAAAGCAAUAUUACGAUAG | -3.4 ± 0.38 | -1.02 ± 0.16 |
| UCACAGCAAUAUUACGUUCU | -3.63 ± 0.22 | -1.5 ± 0.13 |
| AUAGAGCAAUAUUACGUGCA | -0.67 ± 0.069 | -0.162 ± 0.1 |
| UAGUAGCAAUAUUACGAAGC |  | -1.73 ± 0.45 |
| CUAUAGCAAUAUUACGACCG | 0.239 ± 0.18 | 0.785 ± 0.27 |
| GAUCAGCAAUAUUACGCCGG | -1.75 ± 0.18 | -1.41 ± 0.21 |
| CCCAAGCAAUAUUACGCCCG | -2.76 ± 0.33 | -2.44 ± 0.42 |
| ACCUAGCAAUAUUACGUGGU | -3.6 ± 0.14 | -2.95 ± 0.16 |
| ACUCAGCAAUAUUACGACGU | -0.498 ± 0.063 | 0.168 ± 0.082 |
| AUUAAGCAAUAUUACGAAGC | -3.3 ± 0.25 | -2.52 ± 0.31 |
| UUAUAGCAAUAUUACGCAUU | -3.19 ± 0.23 | -2.72 ± 0.2 |
| UUGGAGCAAUAUUACGGGGC | -3.04 ± 0.28 | -3.26 ± 0.47 |
| UUUAAGCAAUAUUACGAACG | -1.08 ± 0.18 | 0.0714 ± 0.21 |
| AGGCAGCAAUAUUACGGAGG | -4.29 ± 0.26 | -2.66 ± 0.25 |
| AUAGAGCAAUAUUACGGAAG | -2.48 ± 0.18 | -1.45 ± 0.21 |
| AAAUAGCAAUAUUACGCUCG | -0.663 ± 0.12 | -0.925 ± 0.15 |
| CUCCAGCAAUAUUACGCCAC | -2.7 ± 0.35 |  |
| CCGUAGCAAUAUUACGUCUA | -2.84 ± 0.16 | -1.92 ± 0.18 |
| CCCGAGCAAUAUUACGUCAG | -3.49 ± 0.15 | -2.51 ± 0.17 |
| AAACAGCAAUAUUACGUUUU | -3.81 ± 0.11 | -3 ± 0.15 |

| Sequence | self-splicing fitness (ln) (30 °C) | self-splicing fitness (ln) (37 °C) |
| --- | --- | --- |
| AAACAGCAAUAUUACGGAGG | -4.68 ± 0.36 | -1.86 ± 0.2 |
| CAGGAGCAAUAUUACGUCGC | -3.25 ± 0.34 | -1.6 ± 0.29 |
| UCGCAGCAAUAUUACGACCA | -1.83 ± 0.13 | -1.07 ± 0.14 |
| CGGGAGCAAUAUUACGCGCA |  | -0.737 ± 0.49 |
| GGCGAGCAAUAUUACGCUAA | -2.83 ± 0.32 | -1.02 ± 0.22 |
| UCUAAGCAAUAUUACGGUAC | -3.5 ± 0.3 | -2.78 ± 0.4 |
| CUAUAGCAAUAUUACGAGCU | -1.79 ± 0.48 |  |
| CUCUAGCAAUAUUACGGGGC | -2.81 ± 0.27 | -2.64 ± 0.41 |
| CUGGAGCAAUAUUACGGAAC | -3.5 ± 0.33 | -2.64 ± 0.3 |
| CAGCAGCAAUAUUACGAAGA | -2.72 ± 0.31 | -2.6 ± 0.38 |
| CUAGAGCAAUAUUACGCAUA | -2.97 ± 0.27 | -2.93 ± 0.4 |
| AGUUAGCAAUAUUACGCGUG | -2.38 ± 0.2 | -0.946 ± 0.17 |
| UAUGAGCAAUAUUACGAUUG | -1.94 ± 0.17 | -1.11 ± 0.2 |
| CUAAAGCAAUAUUACGUUUA | -4.12 ± 0.16 | -2.81 ± 0.17 |
| UCUCAGCAAUAUUACGAAAA | -1.84 ± 0.26 | -2.59 ± 0.26 |
| CGUAAGCAAUAUUACGAAGA | -3.07 ± 0.31 |  |
| CAACAGCAAUAUUACGAAAU | -2.7 ± 0.12 | -2.47 ± 0.2 |
| UUUAAGCAAUAUUACGUCGA | -0.771 ± 0.092 | -0.225 ± 0.1 |
| CAAAAGCAAUAUUACGGCCG | 0.257 ± 0.11 | 0.574 ± 0.16 |
| AGUAAGCAAUAUUACGGCAU | -0.486 ± 0.11 | -0.411 ± 0.12 |
| GCUUAGCAAUAUUACGCUGU | -2.25 ± 0.18 | -1.25 ± 0.18 |
| UUCUAGCAAUAUUACGCUUG | -4.24 ± 0.33 | -2.67 ± 0.22 |
